Test [1] addresses T1, cynomolgus TIM-3 expressed on transfected cells (cynomolgus, UniProt A0A2K5U3G7 22-294).
T1 chain: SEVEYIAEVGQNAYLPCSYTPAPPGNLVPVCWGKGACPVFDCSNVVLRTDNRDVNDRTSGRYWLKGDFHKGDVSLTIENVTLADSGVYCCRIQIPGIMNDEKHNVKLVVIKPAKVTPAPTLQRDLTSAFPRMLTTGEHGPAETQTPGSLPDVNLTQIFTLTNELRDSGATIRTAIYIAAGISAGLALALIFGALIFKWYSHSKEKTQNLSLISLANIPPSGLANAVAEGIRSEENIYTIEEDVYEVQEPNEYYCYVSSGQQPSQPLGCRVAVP
The experiment in a line: cell binding (FACS); cyno TIM-3 cells.

The target in test [2] is TIM-3 (assay antigen; species and construct not stated) (UniProt Q8TDQ0 22-202). The experiment in a line: SPR (BIAcore). A general note: Surface plasmon resonance follows binding to a sensor surface in real time, without labels.
For test [3], the target named is human TIM-3 expressed on cells (UniProt Q8TDQ0 22-301). The experiment in a line: cell binding (FACS); TIM-3-transfected 300.19 cells.

The term Kd denotes the concentration at which binding is half-saturated. Low readings indicate tighter binding, high ones weaker binding.

B1: ABTIM3 (antibody, V domains shown)
VH: QVQLQQPGAELVKPGASVKMSCKASGYTFTSYNMHWIKQTPGQGLEWIGDIYPGNGDTSYNQKFKGKATLTADKSSSTVYMQLSSLTSEDSAVYYCARVGGAFPMDYWGQGTSVTVSS
VL: DIVLTQSPASLAVSLGQRATISCRASESVEYYGTSLMQWYQQKPGQPPKLLIYAASNVESGVPARFSGSGSGTDFSLNIHPVEEDDIAIYFCQQSRKDPSTFGGGTKLEIK
B1: the dissociation constant (Kd) in test [1] was found to be 0.68 nM; in test [2], 0.042 nM; in test [3] it was 0.16 nM.

The record behind these values is patent US20220133889A1 (published 2022).
